Results published in US20240376151A1, “STAPLED PEPTIDES AND METHODS THEREOF” (FOG PHARMACEUTICALS, INC., priority 2022, published 2024).

Molecular target: T1, beta-catenin (Homo sapiens, UniProt P35222)
T1 construct: made in house; host or cells: E. coli BL21 (DE3) pLysS
T1 sequence (P35222 134-665): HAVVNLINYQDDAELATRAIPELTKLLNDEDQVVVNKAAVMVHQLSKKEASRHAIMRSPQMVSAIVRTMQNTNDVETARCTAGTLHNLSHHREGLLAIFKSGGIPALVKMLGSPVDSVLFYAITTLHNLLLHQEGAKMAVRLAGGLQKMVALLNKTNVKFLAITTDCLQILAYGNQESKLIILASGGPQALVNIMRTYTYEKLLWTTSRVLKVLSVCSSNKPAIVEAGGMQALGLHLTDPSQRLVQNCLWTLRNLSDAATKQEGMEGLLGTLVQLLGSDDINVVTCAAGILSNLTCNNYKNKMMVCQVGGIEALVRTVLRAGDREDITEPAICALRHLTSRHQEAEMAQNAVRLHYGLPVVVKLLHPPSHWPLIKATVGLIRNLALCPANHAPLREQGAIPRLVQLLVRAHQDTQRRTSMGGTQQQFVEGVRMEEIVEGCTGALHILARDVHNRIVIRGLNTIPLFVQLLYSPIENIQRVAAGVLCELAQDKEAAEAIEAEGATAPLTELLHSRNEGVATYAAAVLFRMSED
Assay: Phage Library Screening with NGS, beta-catenin
Type: binding
Settings: for Target Concentration 10 (phage screen NGS readout): beta-catenin target concentration 10; for Target Concentration 10 (phage screen NGS readout) / Target Concentration 30 (phage screen NGS readout) / Target Concentration 100 (phage screen NGS readout) / Target Concentration 300 (phage screen NGS readout): no competitor; for Target Concentration 30 (phage screen NGS readout): beta-catenin target concentration 30; for Target Concentration 100 (phage screen NGS readout): beta-catenin target concentration 100; for Target Concentration 300 (phage screen NGS readout): beta-catenin target concentration 300; for Target Concentration 1000 (phage screen NGS readout): beta-catenin target concentration 1000

Row | Target Concentration BLANK (phage screen NGS readout) (first column) | Target Concentration BLANK (phage screen NGS readout) (fourth column) | Target Concentration BLANK (phage screen NGS readout) (second column) | Target Concentration BLANK (phage screen NGS readout) (third column) | Target Concentration 10 (phage screen NGS readout) | Target Concentration 30 (phage screen NGS readout) | Target Concentration 100 (phage screen NGS readout) | Target Concentration 300 (phage screen NGS readout) | Target Concentration 1000 (phage screen NGS readout) (first 1000 column) | Target Concentration 1000 (phage screen NGS readout) (second 1000 column) | Sequence
1 | 0 | 0 | 1 | 0 | 0 | 0 | 4 | 33 | 19 | 42 | DPAMIQCQWAAEHCELI
2 | 0 | 0 | 0 | 0 | 0 | 5 | 24 | 36 | 45 | 30 | DPADNECILAAHICTLA
3 | 0 | 0 | 0 | 1 | 0 | 0 | 0 | 4 | 12 | 0 | DPAVMACYEAAFQCAYW
4 | 1 | 0 | 0 | 0 | 2 | 15 | 60 | 231 | 177 | 234 | DPAHWHCEHAALLCASV
5 | 1 | 0 | 4 | 0 | 6 | 24 | 148 | 448 | 431 | 449 | DPAEWACEHAALTCWDQ
6 | 0 | 0 | 0 | 0 | 3 | 21 | 67 | 168 | 201 | 114 | DPAILDCQLAAIDCVYT
7 | 0 | 0 | 0 | 1 | 10 | 12 | 81 | 226 | 273 | 227 | DPADDFCMWAAEHCELL
8 | 0 | 0 | 0 | 0 | 7 | 8 | 20 | 49 | 41 | 39 | DPAILECYEAAFECQYM
9 | 0 | 0 | 1 | 0 | 0 | 7 | 18 | 71 | 69 | 105 | DPAILTCYEAAFTCQYQ

The remaining lines, values behind:

Row | Sequence | Target Concentration BLANK (phage screen NGS readout) (first column) | Target Concentration BLANK (phage screen NGS readout) (fourth column) | Target Concentration BLANK (phage screen NGS readout) (second column) | Target Concentration BLANK (phage screen NGS readout) (third column) | Target Concentration 10 (phage screen NGS readout) | Target Concentration 30 (phage screen NGS readout) | Target Concentration 100 (phage screen NGS readout) | Target Concentration 300 (phage screen NGS readout) | Target Concentration 1000 (phage screen NGS readout) (first 1000 column) | Target Concentration 1000 (phage screen NGS readout) (second 1000 column)
10 | DPAIADCDWAAEHCDLL | 0 | 1 | 1 | 4 | 0 | 6 | 118 | 266 | 325 | 417
11 | DPAVFECSLAAIDCLQI | 0 | 0 | 0 | 0 | 0 | 0 | 10 | 28 | 10 | 81
12 | DPAILDCQIAAIECEFA | 0 | 1 | 0 | 0 | 0 | 22 | 76 | 68 | 139 | 56
13 | DPAQFYCEHAALLCRWE | 0 | 0 | 0 | 0 | 0 | 0 | 5 | 11 | 15 | 11
14 | DPAEWDCMHAALICEVH | 0 | 0 | 0 | 0 | 0 | 10 | 55 | 54 | 67 | 89
15 | DPAEWQCEHAALLCEQQ | 0 | 6 | 2 | 0 | 78 | 201 | 907 | 1681 | 1740 | 1609
